Results from article PMC7352350, “Molecular Interactions Stabilizing the Promatrix Metalloprotease-9·Serglycin Heteromer” (International Journal of Molecular Sciences, 2020).

T1: recombinant human His-tagged serglycin (human, UniProt P10124 28-158)
T1 construct: serglycin core protein, human, the tag stands instead of the signal peptide; no GAG chains; numbers count on: the mature protein (1-131); also called Ht-SG; SG core protein; source: bought: ProSpec (produced in Escherichia coli)
T1 sequence (looked up): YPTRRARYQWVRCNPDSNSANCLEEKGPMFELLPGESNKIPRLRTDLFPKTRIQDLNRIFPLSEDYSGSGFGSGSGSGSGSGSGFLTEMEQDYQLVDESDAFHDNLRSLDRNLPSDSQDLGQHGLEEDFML


How the values were obtained:
Details in all cases: both partners purified
[1] = biological target: T1, recombinant human His-tagged serglycin; assay: peptide or protein array; 20-mer walks of the MMP-9 FnII module and HPX domain on cellulose, two-residue shift; 10 uL of 1 ng/uL Ht-SG in 10 mL blocking buffer, 1-4 h, room temperature; antibodies against SG
[2] = biological target: T1, recombinant human His-tagged serglycin; assay: peptide or protein array; mutated FnII and HPX 20-mer peptides on cellulose, incubated with Ht-SG; antibodies against SG
[3] = biological target: T2, proMMP-9 purified from THP-1 cells (human (endogenous in THP-1), UniProt P14780 20-707); assay: peptide or protein array; 20-mer walk of the SG core protein on cellulose, two-residue shift; 8.8 ul of 11.2 ug/mL proMMP-9 in 10 mL blocking buffer, 1-4 h, room temperature; antibody against MMP-9
T2 construct: matrix metalloprotease-9 proenzyme, human; pre domain cleaved off, the mature proenzyme is 20-707; the preparation holds a small amount of TIMP-1; monomer and reduction-sensitive homomultimer; also called pMMP-9; promatrix metalloprotease-9; source: purified from conditioned medium of PMA-stimulated THP-1 cells (Q-Sepharose pass-through, gelatin-Sepharose)
Target sequence in this assay (P14780 20-707): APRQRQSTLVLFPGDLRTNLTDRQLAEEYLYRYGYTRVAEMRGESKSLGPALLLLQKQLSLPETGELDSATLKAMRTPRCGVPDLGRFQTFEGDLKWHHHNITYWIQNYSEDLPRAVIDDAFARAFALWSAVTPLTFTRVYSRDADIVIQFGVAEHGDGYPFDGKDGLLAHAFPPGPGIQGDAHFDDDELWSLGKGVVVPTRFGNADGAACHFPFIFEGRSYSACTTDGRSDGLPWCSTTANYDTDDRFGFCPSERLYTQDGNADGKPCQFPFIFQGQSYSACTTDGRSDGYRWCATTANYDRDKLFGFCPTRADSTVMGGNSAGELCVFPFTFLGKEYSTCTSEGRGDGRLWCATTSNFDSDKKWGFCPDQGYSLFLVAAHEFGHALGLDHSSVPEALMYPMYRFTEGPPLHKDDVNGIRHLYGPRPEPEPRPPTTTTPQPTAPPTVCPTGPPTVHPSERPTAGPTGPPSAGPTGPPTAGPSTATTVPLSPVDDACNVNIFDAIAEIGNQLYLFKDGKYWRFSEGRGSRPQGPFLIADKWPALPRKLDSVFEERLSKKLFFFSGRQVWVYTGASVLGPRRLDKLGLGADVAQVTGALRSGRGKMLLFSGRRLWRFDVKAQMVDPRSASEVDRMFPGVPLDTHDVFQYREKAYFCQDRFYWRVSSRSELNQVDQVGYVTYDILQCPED

[4] = biological target: T3, recombinant proMMP-9 lacking the HPX domain (human, UniProt P14780 20-515); assay: as above
T3 construct: MMP-9 proenzyme, human; stop codon behind the codon for A515; the mature proenzyme starts at 20; also called rpMMP-9ΔHPX; proMMP-9ΔHPX; source: Sf9, baculovirus, purified (gelatin-Sepharose)

[5] = biological target: T4, recombinant full-length proMMP-9 (human, UniProt P14780 20-707); assay: as above
T4 construct: matrix metalloprotease-9 proenzyme, human, full-length; pre domain cleaved off, the mature proenzyme is 20-707; also called rpMMP-9; source: Sf9, baculovirus, purified (gelatin-Sepharose)

[6] = biological target: T2, proMMP-9 purified from THP-1 cells; assay: as above; remark: listed apart in the source

T3 sequence (P14780 20-515): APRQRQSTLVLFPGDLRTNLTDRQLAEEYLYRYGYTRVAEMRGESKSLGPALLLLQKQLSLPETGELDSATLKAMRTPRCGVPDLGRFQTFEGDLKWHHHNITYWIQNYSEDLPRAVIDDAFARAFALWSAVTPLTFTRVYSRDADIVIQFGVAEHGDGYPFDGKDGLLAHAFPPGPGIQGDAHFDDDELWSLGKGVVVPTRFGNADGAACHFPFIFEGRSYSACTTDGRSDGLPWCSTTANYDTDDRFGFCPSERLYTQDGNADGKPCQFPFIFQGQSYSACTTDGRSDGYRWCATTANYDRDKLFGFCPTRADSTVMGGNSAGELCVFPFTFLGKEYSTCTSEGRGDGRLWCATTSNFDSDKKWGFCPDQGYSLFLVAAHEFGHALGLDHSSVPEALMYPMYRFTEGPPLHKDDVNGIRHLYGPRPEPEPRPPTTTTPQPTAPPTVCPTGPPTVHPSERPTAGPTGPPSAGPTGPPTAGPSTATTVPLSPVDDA

Row | Binder | binding result [1] | binding result [3] | binding result [4] | binding result [5] | also measured
1 | LDKLGLGADVAQVTGALRSG (peptide, UniProt P14780 601-620, looked up, MMP-9 HPX domain (F521-D707), spot 41 of the 20-mer walk with two-residue shift; source: synthetic peptide on a cellulose membrane) [HPX peptide 41] | binds | – | – | – | –
2 | RLWRFDVKAQMVDPRSASEV (peptide, UniProt P14780 631-650, looked up, MMP-9 HPX domain (F521-D707), spot 56 of the 20-mer walk with two-residue shift; source: synthetic peptide on a cellulose membrane) [HPX peptide 56] | binds | – | – | – | –
3 | VPLDTHDVFQYREKAYFCQD (peptide, UniProt P14780 657-676, looked up, MMP-9 HPX domain (F521-D707), spot 69 of the 20-mer walk with two-residue shift; source: synthetic peptide on a cellulose membrane) [HPX peptide 69] | binds | – | – | – | –
4 | LDTHDVFQYREKAYFCQDRF (peptide, UniProt P14780 659-678, looked up, MMP-9 HPX domain (F521-D707), spot 70 of the 20-mer walk with two-residue shift; source: synthetic peptide on a cellulose membrane) [HPX peptide 70] | binds | – | – | – | –
5 | THDVFQYREKAYFCQDRFYW (peptide, UniProt P14780 661-680, looked up, MMP-9 HPX domain (F521-D707), spot 71 of the 20-mer walk with two-residue shift; source: synthetic peptide on a cellulose membrane) [HPX peptide 71] | binds | – | – | – | –
6 | AYFCQDRFYWRVSSRSELNQ (peptide, UniProt P14780 671-690, looked up, MMP-9 HPX domain (F521-D707), spot 76 of the 20-mer walk with two-residue shift; source: synthetic peptide on a cellulose membrane) [HPX peptide 76] | binds | – | – | – | –
7 | ELNQVDQVGYVTYDILQCPE (peptide, UniProt P14780 687-706, looked up, MMP-9 HPX domain (F521-D707), spot 84 of the 20-mer walk with two-residue shift; source: synthetic peptide on a cellulose membrane) [HPX peptide 84] | binds | – | – | – | –
8 | LNQVDQVGYVTYDILQCPED (peptide, UniProt P14780 688-707, looked up, MMP-9 HPX domain (F521-D707), last spot (85) of the 20-mer walk; source: synthetic peptide on a cellulose membrane) [HPX peptide 85] | binds | – | – | – | –
9 | LDKLGLGAAVAQVTGALRSG (peptide, UniProt P14780 601-620, looked up, MMP-9 HPX domain, mutated 20-mer of spot 41; source: synthetic peptide on a cellulose membrane) [HPX peptide 41 with D609 mutated] | – | – | – | – | binding result [2]: binds
10 | VPLDTHDVFQYREKAAFCQD (peptide, UniProt P14780 657-676, looked up, MMP-9 HPX domain, mutated 20-mer of spot 69; source: synthetic peptide on a cellulose membrane) [HPX peptide 69 with Y672 mutated] | – | – | – | – | binding result [2]: binds
11 | VPLDTHDVFQYREKAYGCQD (peptide, UniProt P14780 657-676, looked up, MMP-9 HPX domain, mutated 20-mer of spot 69; source: synthetic peptide on a cellulose membrane) [HPX peptide 69 with F673 mutated] | – | – | – | – | binding result [2]: binds
12 | VRCNPDSNSANCLEEKGPMF (peptide, UniProt P10124 38-57, looked up, serglycin core protein, spot 6 of the 20-mer walk with two-residue shift; numbers count on: the mature protein (1-131); source: synthetic peptide on a cellulose membrane) [SG peptide 6] | – | binds | binds | binds | –
13 | GPMFELLPGESNKIPRLRTD (peptide, UniProt P10124 54-73, looked up, serglycin core protein, spot 14 of the 20-mer walk with two-residue shift; numbers count on: the mature protein (1-131); source: synthetic peptide on a cellulose membrane) [SG peptide 14] | – | binds | binds | binds | –
14 | MFELLPGESNKIPRLRTDLF (peptide, UniProt P10124 56-75, looked up, serglycin core protein, spot 15 of the 20-mer walk with two-residue shift; numbers count on: the mature protein (1-131); source: synthetic peptide on a cellulose membrane) [SG peptide 15] | – | binds | binds | binds | –
15 | PRLRTDLFPKTRIQDLNRIF (peptide, UniProt P10124 68-87, looked up, serglycin core protein, spot 21 of the 20-mer walk with two-residue shift; numbers count on: the mature protein (1-131); source: synthetic peptide on a cellulose membrane) [SG peptide 21] | – | binds | – | binds | –
16 | LRTDLFPKTRIQDLNRIFPL (peptide, UniProt P10124 70-89, looked up, serglycin core protein, spot 22 of the 20-mer walk with two-residue shift; numbers count on: the mature protein (1-131); source: synthetic peptide on a cellulose membrane) [SG peptide 22] | – | binds | binds | binds | –
17 | TDLFPKTRIQDLNRIFPLSE (peptide, UniProt P10124 72-91, looked up, serglycin core protein, spot 23 of the 20-mer walk with two-residue shift; numbers count on: the mature protein (1-131); source: synthetic peptide on a cellulose membrane) [SG peptide 23] | – | binds | binds | binds | –
18 | LFPKTRIQDLNRIFPLSEDY (peptide, UniProt P10124 74-93, looked up, serglycin core protein, spot 24 of the 20-mer walk with two-residue shift; numbers count on: the mature protein (1-131); source: synthetic peptide on a cellulose membrane) [SG peptide 24] | – | binds | binds | binds | –
19 | PKTRIQDLNRIFPLSEDYSG (peptide, UniProt P10124 76-95, looked up, serglycin core protein, spot 25 of the 20-mer walk with two-residue shift; numbers count on: the mature protein (1-131); source: synthetic peptide on a cellulose membrane) [SG peptide 25] | – | binds | binds | binds | –
20 | TRIQDLNRIFPLSEDYSGSG (peptide, UniProt P10124 78-97, looked up, serglycin core protein, spot 26 of the 20-mer walk with two-residue shift; numbers count on: the mature protein (1-131); source: synthetic peptide on a cellulose membrane) [SG peptide 26] | – | binds | binds | binds | –
21 | IQDLNRIFPLSEDYSGSGFG (peptide, UniProt P10124 80-99, looked up, serglycin core protein, spot 27 of the 20-mer walk with two-residue shift; numbers count on: the mature protein (1-131); source: synthetic peptide on a cellulose membrane) [SG peptide 27] | – | binds | binds | binds | –
22 | YQLVDESDAFHDNLRSLDRN (peptide, UniProt P10124 120-139, looked up, serglycin core protein, spot 47 of the 20-mer walk with two-residue shift; numbers count on: the mature protein (1-131); source: synthetic peptide on a cellulose membrane) [SG peptide 47] | – | binds | binds | binds | –
23 | LVDESDAFHDNLRSLDRNLP (peptide, UniProt P10124 122-141, looked up, serglycin core protein, spot 48 of the 20-mer walk with two-residue shift; numbers count on: the mature protein (1-131); source: synthetic peptide on a cellulose membrane) [SG peptide 48] | – | binds | binds | binds | –
24 | SDAFHDNLRSLDRNLPSDSQ (peptide, UniProt P10124 126-145, looked up, serglycin core protein, spot 50 of the 20-mer walk with two-residue shift; numbers count on: the mature protein (1-131); source: synthetic peptide on a cellulose membrane) [SG peptide 50] | – | – | – | – | binding result [6]: binds
